Laboratory results taken from publication doi:10.1101/2020.02.27.968578.

Tests used:
YFP = YFP (UniProt P42212); experiment: cited; details: PBS, 5 mM MgCl2, pH 7.4, room temperature, 5 min; 50 nM GFP, excitation 480 nm; cited from earlier work
CFP = CFP (UniProt P42212); experiment: cited; details: PBS, 5 mM MgCl2, pH 7.4, room temperature, 5 min; 50 nM GFP, excitation 480 nm; cited from earlier work
EGFP [1] = biological target: EGFP (UniProt P42212); experiment: cited; details: PBS, 5 mM MgCl2, pH 7.4, room temperature, 5 min; 50 nM GFP, excitation 480 nm; cited from earlier work
EGFP [2] = biological target: EGFP (UniProt P42212); experiment: GFP fluorescence quenching titration; details: PBS, 5 mM MgCl2, pH 7.4, room temperature, 5 min; 50 nM GFP, excitation 480 nm

In the case of “GGGAGCUUCUGGACUGCGAUGGGAGCACGAAACGUCGUGGCGCAAUUGGGUGGGGAAAGUCCUUAAAAGAGGGCCACCACAGAAGC [AP3 (GFP aptamer)]”, the Kd (YFP) is given as 10 nM, the Kd (CFP) is given as 10 nM and the Kd (EGFP [1]) is given as 4 nM. The Kd (EGFP [2]) was 4 nM.
